The results in this text go back to article PMC5669894 (2017).

For assay [1], the target named is T1, C-terminal SH3 domain of the growth factor receptor-bound protein 2 (Grb2) (UniProt P62993 158-211).
The target in assay [2] is T1, C-terminal SH3 domain of the growth …. This is another data set of the same source.
Assay [3] has the same target. This is another data set of the same source.

Where two headings read alike, the source gives them in different places.

T1 sequence (P62993 156-215): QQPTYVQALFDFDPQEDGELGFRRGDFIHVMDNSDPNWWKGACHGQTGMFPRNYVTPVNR

B1: Gab2 503-524 peptide, variant P512A (peptide)
peptide: SRGSEIQPPAVNRNLKPDRKAK
A word on the koff: it is a measure of how fast the partners let go of each other. Lower therefore signals a long-lived complex. In assay [1], B1 came in with an off-rate constant (koff) of 90 s⁻¹.

B2: Gab2 503-524 peptide, variant P510A (peptide)
peptide: SRGSEIQAPPVNRNLKPDRKAK
For the molecule B2, the dissociation rate constant (koff) in assay [2] stood at 100 s⁻¹.

B3: Gab2 503-524 peptide, variant P519A (peptide)
peptide: SRGSEIQPPPVNRNLKADRKAK
In the case of B3, in assay [3], the off-rate (koff) stood at 250 s⁻¹.
